# Target: Human ornithine decarboxylase (human) (UniProt P11926)
# Test: not given
# Sequence of Human ornithine decarboxylase (human) (P11926 2-421): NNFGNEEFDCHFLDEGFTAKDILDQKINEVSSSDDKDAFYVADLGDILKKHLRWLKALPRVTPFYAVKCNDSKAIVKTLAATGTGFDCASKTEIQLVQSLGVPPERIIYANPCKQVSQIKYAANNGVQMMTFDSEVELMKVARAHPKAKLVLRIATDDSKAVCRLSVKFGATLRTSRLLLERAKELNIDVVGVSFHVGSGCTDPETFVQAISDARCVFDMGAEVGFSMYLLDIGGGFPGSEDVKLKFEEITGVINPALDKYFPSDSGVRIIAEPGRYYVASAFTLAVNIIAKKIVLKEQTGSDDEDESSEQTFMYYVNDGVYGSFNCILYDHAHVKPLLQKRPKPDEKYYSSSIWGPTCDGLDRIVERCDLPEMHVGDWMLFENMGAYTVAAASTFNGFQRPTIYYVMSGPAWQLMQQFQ
row,Substance,IC50 of inhibition of ODC enzyme activity by AZ [nM]
1,AZ3_R138S (natural protein),810
2,AZ3_Q177H (natural protein),1340
3,AZ3_G99D (natural protein),780
4,AZ3_R137G (natural protein),1230
5,AZ3_S127R (natural protein),1020
6,AZ3_D179N (natural protein),450
7,AZ3_T126K (natural protein),700
8,AZ3_Y145G (natural protein),980
9,AZ3_S171H (natural protein),430
10,AZ3_H129N (natural protein),670
11,AZ3_N100R (natural protein),660
12,AZ3_Q150E (natural protein),480
13,AZ3_D136G (natural protein),720
14,AZ3_D112K (natural protein),550
15,AZ3_K166Q (natural protein),420
16,AZ3_S124D (natural protein),500
17,AZ3_D149P (natural protein),2050
18,AZ3_N168R (natural protein),1380
19,AZ3_N175C (natural protein),650
20,AZ3_A98D (natural protein),670
21,AZ3_N178K (natural protein),670
22,AZ3_T106E (natural protein),1210

# Target: Human ornithine decarboxylase (human) (UniProt P11926)
# Test: not given
# Remark: another data set of the same source
row,Substance,IC50 of inhibition of ODC enzyme activity by AZ [nM]
1,AZ3_S124D/Q150E/K166Q/S171H/D179N (natural protein),290
2,AZ3_S124D/Q150E/K166Q/D179N (natural protein),250

# Target: Human ornithine decarboxylase (human) (UniProt P11926)
# Test: AUC; sedimentation velocity, 20 °C, 30 mM Tris-HCl pH 7.4, 25 mM NaCl; ODC fixed at 0.3 mg/mL, AZ 0.02-0.19 mg/mL (AZ/ODC molar ratio 0.25 to 3); all data sets fitted to the AB hetero-association model in SEDPHAT
row,Substance,Kd [nM]
1,AZ3_S124D/Q150E/K166Q/S171H/D179N (natural protein),140
2,AZ3_S124D/Q150E/K166Q/D179N (natural protein),500
